Experimental data from PMC1919509 (Nucleic Acids Research, 2007).

Target: Single-stranded DNA binding protein (SSB), over-expressed recombinant (E. coli, UniProt P0AGE0 1-178)
Test: cross-linking

Sequence of Single-stranded DNA binding protein (SSB), over-expressed recombinant (P0AGE0 whole entry): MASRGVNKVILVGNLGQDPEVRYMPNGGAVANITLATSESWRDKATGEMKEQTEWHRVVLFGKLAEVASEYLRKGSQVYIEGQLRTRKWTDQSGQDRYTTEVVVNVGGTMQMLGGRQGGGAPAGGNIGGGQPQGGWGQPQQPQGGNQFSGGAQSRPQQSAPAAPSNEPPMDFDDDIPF

B1: Exonuclease IX (ExoIX), native recombinant (natural protein, E. coli, UniProt P38506 1-251, looked up)
chain: MAVHLLIVDALNLIRRIHAVQGSPCVETCQHALDQLIMHSQPTHAVAVFDDENRSSGWRHQRLPDYKAGRPPMPEELHDEMPALRAAFEQRGVPCWSTSGNEADDLAATLAVKVTQAGHQATIVSTDKGYCQLLSPTLRIRDYFQKRWLDAPFIDKEFGVQPQQLPDYWGLAGISSSKVPGVAGIGPKSATQLLVEFQSLEGIYENLDAVAEKWRKKLETHKEMAFLCRDIARLQTDLHIDGNLQQLRLVR
- stoichiometry N: 2 ExoIX molecules per SSB tetramer
